First the molecules themselves.
T1: human NKp46 ECD (human)
T1 chain: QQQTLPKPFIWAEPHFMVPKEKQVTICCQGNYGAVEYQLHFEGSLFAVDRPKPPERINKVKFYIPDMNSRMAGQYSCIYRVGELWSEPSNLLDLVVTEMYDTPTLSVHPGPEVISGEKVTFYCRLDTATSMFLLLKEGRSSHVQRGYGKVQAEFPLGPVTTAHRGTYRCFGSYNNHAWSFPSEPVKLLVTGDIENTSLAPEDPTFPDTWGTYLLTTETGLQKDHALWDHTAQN

B1: ch6-1 (antibody, V domains shown)
VH: QSLEESGGGLVQPEGSLTLTCTASGFSFSSSAWICWVRQAPGKGLEWIGCINTVSVNAYYASWAKGRFTISKTSSTTVTLQVTSLTAADTATHFCARNPYNSLRLWGPGTLVTVSS
VL: DVVMTQTPASVSEPVGGTITINCQASENIYSSLAWYQQKPGQPPKLLMYDVSDLASGVPSRFSGSGSGTEFALTISDVQPDDAATYFCLGGYPSNNYRMAFGGGTEVVVK
B2: IP-46-3 (antibody, V domains shown)
VH: EVQLQQSGPELVKPGASVKISCKTSGYTFTEYTMHWVKQSHGKSLEWIGGISPNIGGTSYNQKFKGKATLTVDKSSSTAYMELRSLTSEDSAVYYCARRGGSFDYWGQGTTLTVSS
VL: DIVMTQSPATLSVTPGDRVSLSCRASQSISDYLHWYQQKSHESPRLLIKYASQSISGIPSRFSGSGSGSDFTLSINSVEPEDVGVYYCQNGHSFPLTFGAGTKLELK
B3: ch3-7 (antibody, V domains shown)
VH: QSLEESGGRLVTPGTPLTLTCTVSGFSPSSYYMSWVRQAPGKGLEYIGIIFSGGSTWYASWAKGRVTISRTSTTVDLKMTSLTTEDTATYFCARGDAVGSGYWGLWGPGTLVTVSS
VL: AFELTQTPSSVEAAVGGTVTINCQASQDIYIYLAWYQQKPGQPPKLLIYSASTLASGVSSRFTGSRSGTQFTLTISDLEPADAATYYCQSYDGTSNTGFGGGTEVVVR
B4: ch5-13 (antibody, V domains shown)
VH: QSVEESGGRLVTPGTPLTLTCTVSGFSLSSYHMSWVRQAPGKGLEWIGYILANTDSYYANWAKGRFTISKTSTTVDLKITSPTTEDTATYFCARYDNHDAAYSTLWGPGTLVTVSS
VL: AYDMTQTPASVEVAVGGTVTIKCQASQSISTALAWYQQKPGQPPKLLIYKASTLASGVSSRFKGSGSGTQFTLTISGVEPADAATYYCQQGYSRSNVDNVFGGGTEVVVK

This assay concerns the target T1, human NKp46 ECD. In words: SPR, 25C.
Consider B1, for which the affinity, expressed as Kd, was 0.0209 nM.
Under B2 stands 0.361 nM; under B3, 0.0199 nM.
Regarding B4, binding was characterised by a dissociation constant (Kd) of 0.194 nM.

In general, Kd refers to the free concentration of one partner at which half of the binding sites on the other are occupied at equilibrium, for simple one-to-one binding. The low end stands for tighter binding, the high end for weaker binding.

The values above are taken from US20260297188 (published 2026).
